This is an account of results in patent US20260207798A1, “CYCLIC PEPTIDES AS PET IMAGING AGENTS OF GRANZYME B” (priority 2022, published 2026).

B1: Compound 3a (peptide)
peptide: {CH2CO}-FNFEDQSADTWQPCGGK(RESCA‑1)-NH2
modifications: thioether N-14
B2: Compound 9a (peptide)
peptide: {CH2CO}-FNFEDQSADTWQPCGGK(AF647)-NH2
modifications: thioether N-14
B3: Compound 16a (peptide)
peptide: {CH2CO}-FNFEDQSADTWQPCGGK(Peg4)-NH2
modifications: thioether N-14
B4: Compound 4a (peptide)
peptide: {CH2CO}-FNFEDQSADTWQPCGGK(Propionyl)-NH2
modifications: thioether N-14
B5: Compound 70a (peptide)
peptide: {CH2CO}-LNFEDQSPDTWQPCG-NH2
modifications: thioether N-14
SMILES: CC(C)C[C@@H]1NC(=O)CSC[C@@H](C(=O)NCC(N)=O)NC(=O)[C@@H]2CCCN2C(=O)[C@H](CCC(N)=O)NC(=O)[C@H](Cc2c[nH]c3ccccc23)NC(=O)[C@H]([C@@H](C)O)NC(=O)[C@H](CC(=O)O)NC(=O)[C@@H]2CCCN2C(=O)[C@H](CO)NC(=O)[C@H](CCC(N)=O)NC(=O)[C@H](CC(=O)O)NC(=O)[C@H](CCC(=O)O)NC(=O)[C@H](Cc2ccccc2)NC(=O)[C@H](CC(N)=O)NC1=O
B6: Compound 77a (peptide)
peptide: {CH2CO}-FNFEDQSAATWQPCG-NH2
modifications: thioether N-14
SMILES: C[C@@H]1NC(=O)[C@H](C)NC(=O)[C@H](CO)NC(=O)[C@H](CCC(N)=O)NC(=O)[C@H](CC(=O)O)NC(=O)[C@H](CCC(=O)O)NC(=O)[C@H](Cc2ccccc2)NC(=O)[C@H](CC(N)=O)NC(=O)[C@H](Cc2ccccc2)NC(=O)CSC[C@@H](C(=O)NCC(N)=O)NC(=O)[C@@H]2CCCN2C(=O)[C@H](CCC(N)=O)NC(=O)[C@H](Cc2c[nH]c3ccccc23)NC(=O)[C@H]([C@@H](C)O)NC1=O
B7: Compound 78a (peptide)
peptide: {CH2CO}-FNFEDQSAFTWQPCG-NH2
modifications: thioether N-14
SMILES: C[C@@H]1NC(=O)[C@H](CO)NC(=O)[C@H](CCC(N)=O)NC(=O)[C@H](CC(=O)O)NC(=O)[C@H](CCC(=O)O)NC(=O)[C@H](Cc2ccccc2)NC(=O)[C@H](CC(N)=O)NC(=O)[C@H](Cc2ccccc2)NC(=O)CSC[C@@H](C(=O)NCC(N)=O)NC(=O)[C@@H]2CCCN2C(=O)[C@H](CCC(N)=O)NC(=O)[C@H](Cc2c[nH]c3ccccc23)NC(=O)[C@H]([C@@H](C)O)NC(=O)[C@H](Cc2ccccc2)NC1=O
B8: Compound 72a (peptide)
peptide: {CH2CO}-FNFEDQS[NEtAla]DTWQPCG-NH2
modifications: thioether N-14
SMILES: CCN1C(=O)[C@H](CO)NC(=O)[C@H](CCC(N)=O)NC(=O)[C@H](CC(=O)O)NC(=O)[C@H](CCC(=O)O)NC(=O)[C@H](Cc2ccccc2)NC(=O)[C@H](CC(N)=O)NC(=O)[C@H](Cc2ccccc2)NC(=O)CSC[C@@H](C(=O)NCC(N)=O)NC(=O)[C@@H]2CCCN2C(=O)[C@H](CCC(N)=O)NC(=O)[C@H](Cc2c[nH]c3ccccc23)NC(=O)[C@H]([C@@H](C)O)NC(=O)[C@H](CC(=O)O)NC(=O)[C@@H]1C
B9: Compound 80a (peptide)
peptide: {CH2CO}-FNFEDQSALTWQPCG-NH2
modifications: thioether N-14
SMILES: CC(C)C[C@@H]1NC(=O)[C@H](C)NC(=O)[C@H](CO)NC(=O)[C@H](CCC(N)=O)NC(=O)[C@H](CC(=O)O)NC(=O)[C@H](CCC(=O)O)NC(=O)[C@H](Cc2ccccc2)NC(=O)[C@H](CC(N)=O)NC(=O)[C@H](Cc2ccccc2)NC(=O)CSC[C@@H](C(=O)NCC(N)=O)NC(=O)[C@@H]2CCCN2C(=O)[C@H](CCC(N)=O)NC(=O)[C@H](Cc2c[nH]c3ccccc23)NC(=O)[C@H]([C@@H](C)O)NC1=O
B10: Compound 85a (peptide)
peptide: {CH2CO}-FNFEDQSAITWQPCG-NH2
modifications: thioether N-14
SMILES: CC[C@H](C)[C@@H]1NC(=O)[C@H](C)NC(=O)[C@H](CO)NC(=O)[C@H](CCC(N)=O)NC(=O)[C@H](CC(=O)O)NC(=O)[C@H](CCC(=O)O)NC(=O)[C@H](Cc2ccccc2)NC(=O)[C@H](CC(N)=O)NC(=O)[C@H](Cc2ccccc2)NC(=O)CSC[C@@H](C(=O)NCC(N)=O)NC(=O)[C@@H]2CCCN2C(=O)[C@H](CCC(N)=O)NC(=O)[C@H](Cc2c[nH]c3ccccc23)NC(=O)[C@H]([C@@H](C)O)NC1=O
B11: Compound 74a (peptide)
peptide: {CH2CO}-FNFEDQSAQTWQPCG-NH2
modifications: thioether N-14
SMILES: C[C@@H]1NC(=O)[C@H](CO)NC(=O)[C@H](CCC(N)=O)NC(=O)[C@H](CC(=O)O)NC(=O)[C@H](CCC(=O)O)NC(=O)[C@H](Cc2ccccc2)NC(=O)[C@H](CC(N)=O)NC(=O)[C@H](Cc2ccccc2)NC(=O)CSC[C@@H](C(=O)NCC(N)=O)NC(=O)[C@@H]2CCCN2C(=O)[C@H](CCC(N)=O)NC(=O)[C@H](Cc2c[nH]c3ccccc23)NC(=O)[C@H]([C@@H](C)O)NC(=O)[C@H](CCC(N)=O)NC1=O
B12: Compound 73a (peptide)
peptide: {CH2CO}-FNFEDQSAETWQPCG-NH2
modifications: thioether N-14
SMILES: C[C@@H]1NC(=O)[C@H](CO)NC(=O)[C@H](CCC(N)=O)NC(=O)[C@H](CC(=O)O)NC(=O)[C@H](CCC(=O)O)NC(=O)[C@H](Cc2ccccc2)NC(=O)[C@H](CC(N)=O)NC(=O)[C@H](Cc2ccccc2)NC(=O)CSC[C@@H](C(=O)NCC(N)=O)NC(=O)[C@@H]2CCCN2C(=O)[C@H](CCC(N)=O)NC(=O)[C@H](Cc2c[nH]c3ccccc23)NC(=O)[C@H]([C@@H](C)O)NC(=O)[C@H](CCC(=O)O)NC1=O
B13: Compound 84a (peptide)
peptide: {CH2CO}-FNFEDQSAVTWQPCG-NH2
modifications: thioether N-14
SMILES: CC(C)[C@@H]1NC(=O)[C@H](C)NC(=O)[C@H](CO)NC(=O)[C@H](CCC(N)=O)NC(=O)[C@H](CC(=O)O)NC(=O)[C@H](CCC(=O)O)NC(=O)[C@H](Cc2ccccc2)NC(=O)[C@H](CC(N)=O)NC(=O)[C@H](Cc2ccccc2)NC(=O)CSC[C@@H](C(=O)NCC(N)=O)NC(=O)[C@@H]2CCCN2C(=O)[C@H](CCC(N)=O)NC(=O)[C@H](Cc2c[nH]c3ccccc23)NC(=O)[C@H]([C@@H](C)O)NC1=O
B14: Compound 82a (peptide)
peptide: {CH2CO}-FNFEDQSATTWQPCG-NH2
modifications: thioether N-14
SMILES: C[C@@H]1NC(=O)[C@H](CO)NC(=O)[C@H](CCC(N)=O)NC(=O)[C@H](CC(=O)O)NC(=O)[C@H](CCC(=O)O)NC(=O)[C@H](Cc2ccccc2)NC(=O)[C@H](CC(N)=O)NC(=O)[C@H](Cc2ccccc2)NC(=O)CSC[C@@H](C(=O)NCC(N)=O)NC(=O)[C@@H]2CCCN2C(=O)[C@H](CCC(N)=O)NC(=O)[C@H](Cc2c[nH]c3ccccc23)NC(=O)[C@H]([C@@H](C)O)NC(=O)[C@H]([C@@H](C)O)NC1=O
B15: Compound 81a (peptide)
peptide: {CH2CO}-FNFEDQSANTWQPCG-NH2
modifications: thioether N-14
SMILES: C[C@@H]1NC(=O)[C@H](CO)NC(=O)[C@H](CCC(N)=O)NC(=O)[C@H](CC(=O)O)NC(=O)[C@H](CCC(=O)O)NC(=O)[C@H](Cc2ccccc2)NC(=O)[C@H](CC(N)=O)NC(=O)[C@H](Cc2ccccc2)NC(=O)CSC[C@@H](C(=O)NCC(N)=O)NC(=O)[C@@H]2CCCN2C(=O)[C@H](CCC(N)=O)NC(=O)[C@H](Cc2c[nH]c3ccccc23)NC(=O)[C@H]([C@@H](C)O)NC(=O)[C@H](CC(N)=O)NC1=O
B16: Compound 79a (peptide)
peptide: {CH2CO}-FNFEDQSASTWQPCG-NH2
modifications: thioether N-14
SMILES: C[C@@H]1NC(=O)[C@H](CO)NC(=O)[C@H](CCC(N)=O)NC(=O)[C@H](CC(=O)O)NC(=O)[C@H](CCC(=O)O)NC(=O)[C@H](Cc2ccccc2)NC(=O)[C@H](CC(N)=O)NC(=O)[C@H](Cc2ccccc2)NC(=O)CSC[C@@H](C(=O)NCC(N)=O)NC(=O)[C@@H]2CCCN2C(=O)[C@H](CCC(N)=O)NC(=O)[C@H](Cc2c[nH]c3ccccc23)NC(=O)[C@H]([C@@H](C)O)NC(=O)[C@H](CO)NC1=O

Bridge positions count the residues as written; N and C are the ends. Square brackets hold non-standard residues; d marks the D form. * marks the point of attachment. Peg4 = polyethylene glycol with 4 units (PEG4); NEtAla = CCN[C@@H](C)C(=O)O; Propionyl = CCC(=O)*

For the assay, the target named is T1, human Granzyme B (human, UniProt P10144 21-247).
T1 construct: Captured on a Series S Streptavidin chip for SPR; also called hGranzyme B; GzmB
T1 sequence (P10144 21-247 limits assumed): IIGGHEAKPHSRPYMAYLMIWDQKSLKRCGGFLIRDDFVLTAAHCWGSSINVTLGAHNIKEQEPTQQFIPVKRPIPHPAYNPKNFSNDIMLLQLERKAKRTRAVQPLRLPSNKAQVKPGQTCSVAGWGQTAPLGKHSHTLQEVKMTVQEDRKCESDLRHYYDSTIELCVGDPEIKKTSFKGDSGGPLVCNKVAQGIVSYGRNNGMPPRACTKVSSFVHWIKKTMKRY
Put plainly: SPR, Biacore 8k+, hGranzyme B captured on SA chip, single cycle kinetics, 1:1 model. As to the method: The kinetics of test peptide binding to human Granzyme B (hGranzyme B) was determined by SPR. All experiments were performed at 25° C. using the Biacore 8k+ instrument (Cytiva, Marlborough, MA). The Biacore 8k+ Insight Evaluation Software Version 3.0 was used to fit the data with a 1:1 binding model to determine the association rate constant kₐ (M⁻¹s⁻¹, where “M” ~equals molar and “s” ~equals seconds) and the dissociation rate constant kd (s⁻¹). These rate constants were used to calculate the equilibrium dissociation constant. KD (M)=kd/kₐ.
To measure the binding kinetics of peptides of interest, surfaces were prepared by a capture method to a Series S Streptavidin (SA) chip using a 1×HBS-EP+ running buffer (Cytiva). hGranzyme B was diluted to 10 μg/mL in IX HBS-EP+ and flowed over spot 2 of each flow cell on the chip at a flow rate of 10 ul/min for 20 s to achieve a level of capture of ~1100 RU. An unmodified spot 1 of each flow cell was used as a matrix binding control or reference surface. Binding kinetics were measured using single cycle kinetics at 25° C. by injecting 5 concentrations with 3-fold serial dilutions of test peptides from 0.01 μM to 1 μM. Compound dilutions were performed manually in a running buffer containing 1×HBS-EP+(Cytiva), and a final concentration of 2% DMSO. The interaction analyses over hGranzyme B, were performed using a 120 s association time and a 900 s dissociation time. All experiments were conducted at a flow rate of 50 μL/min with a data collection rate of 10 Hz.
Peptide dilution series included 2 zero concentration points (no compound) which were averaged and subtracted from the peptide concentration injection as DMSO control responses. Binding data acquired from the reference surface (matrix binding control) were subtracted from the binding data for hGranzyme B surface on the chip to determine specific binding. Next, the association phase data were solvent corrected to account for any signal fluctuation throughout the experiment due to subtle DMSO concentration differences. Corrected response data were analyzed using the Biacore 8k+ Evaluation Software Version 3.0 according to the manufacturer. SPR data for representative compounds of the disclosure are found in Table 8.
On the technique in general: In SPR one partner is held on a chip, and binding of the other changes the refractive index at the surface.
On to B1, for which the Kd (in general, the free concentration of one partner at which half of the binding sites on the other are occupied at equilibrium, for simple one-to-one binding) was determined as 15.1 nM.
To B2 belongs 13 nM; to B3, 19 nM.
To B4 belongs 11.7 nM; to B5, 18.5 nM; to B6, 29.2 nM.
Turning to B7, the Kd was determined as 34.4 nM.
The molecule B8 gave a Kd of 20.2 nM.
To B9 belongs 38.8 nM.
For B10, the dissociation constant Kd stood at 58.3 nM.
As to B11, binding was characterised by a dissociation constant (Kd) of 23.9 nM.
Molecule B12 had a Kd of 21.3 nM.
In the case of B13, the Kd amounted to 52.2 nM.
On to B14, for which binding was characterised by a dissociation constant (Kd) of 45.8 nM.
For B15, the affinity, expressed as Kd, was 43.4 nM.
In the case of B16, the Kd was 34.8 nM.
